Consider 7 molecules from publication PMC3936744 (Nucleic Acids Research, 2013).

Read-outs that look alike come from different tables or passages of the source.

In series [1] the target is T1, Dpo4 (Sulfolobus solfataricus P2 DNA polymerase IV) (Saccharolobus solfataricus, UniProt Q97W02).
T1 sequence (Q97W02 1-352): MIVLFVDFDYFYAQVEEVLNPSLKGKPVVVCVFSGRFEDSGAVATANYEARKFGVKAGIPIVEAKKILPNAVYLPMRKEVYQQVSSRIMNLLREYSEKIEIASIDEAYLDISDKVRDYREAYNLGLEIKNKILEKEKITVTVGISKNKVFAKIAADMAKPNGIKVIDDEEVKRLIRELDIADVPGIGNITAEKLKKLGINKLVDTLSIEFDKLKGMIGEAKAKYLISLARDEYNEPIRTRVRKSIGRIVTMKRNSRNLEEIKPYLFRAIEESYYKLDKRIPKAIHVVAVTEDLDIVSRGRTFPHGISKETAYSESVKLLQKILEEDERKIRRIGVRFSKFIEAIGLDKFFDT
Briefly: smFRET histogram shift and dissociation rate of the Dpo4-DNA complex. It is filed as binding. Conditions: 1 mM; incorrect nucleotide; 8Cy3 primer-template; Ca2+, pH 7.5, 21 °C.

Series [2] addresses T2, Dpo4 (P2 DNA polymerase IV), wild type, Cy5-labeled (Sulfolobus solfataricus P2, UniProt Q97W02 1-352).
T2 sequence: T1 sequence (Q97W02 1-352)
Briefly: smFRET.

Series [3] deals with T2, Dpo4 (P2 DNA polymerase IV), wild type, …. The series is described as follows: smFRET. The source holds these as a separate data set.
The target is the same in series [4]. The series is described as follows: smFRET. The source holds these as a separate data set.

For `Nc1ccn([C@H]2C[C@H](O)[C@@H](COP(=O)(O)OP(=O)(O)OP(=O)(O)O)O2)c(=O)n1` [dCTP], in series [1], the “smFRET histogram shift and dissociation rate of the Dpo4-DNA complex” value is “both dCTP and dTTP induced a low FRET shift identical to that observed”.

B1: 7Cy3 primer-template (dsDNA)
DNA 1: GATGAAAATGAA
DNA 2: CTCATAATAGCTATCCTTCATTTTCATC
modifications: amino-C6-dT in template
Consider B1, for which the binding result in series [2] was “binds”.

B2: 12Cy3 primer-template (dsDNA)
DNA 1: GATGAAAATGAAGGATA
DNA 2: CTCATAATAGCTATCCTTCATTTTCATC
modifications: amino-C6-dT in template
In the case of B2, the binding result in series [2] is given as “binds”.

B3: 11Cy3 primer-template (dsDNA)
DNA 1: GATGAAAATGAAGGAT
DNA 2: CTCATAATAGCTATCCTTCATTTTCATC
modifications: amino-C6-dT in template
For the molecule B3, the binding result in series [2] is on record as “binds”.

B4: 8Cy3 primer-template (dsDNA)
DNA 1: GATGAAAATGAAG
DNA 2: CTCATAATAGCTATCCTTCATTTTCATC
modifications: amino-C6-dT in template
In general, Kd refers to the free concentration of one partner at which half of the binding sites on the other are occupied at equilibrium, for simple one-to-one binding. A higher Kd goes with weaker binding. B4 came in with a Kd in series [3] of 0.03 ± 0.01 µM.

B5: 10Cy3 primer-template (dsDNA)
DNA 1: GATGAAAATGAAGGA
DNA 2: CTCATAATAGCTATCCTTCATTTTCATC
modifications: amino-C6-dT in template
Regarding B5, the binding result in series [2] is “binds”.

B6: 9Cy3 primer-template (dsDNA)
DNA 1: GATGAAAATGAAGG
DNA 2: CTCATAATAGCTATCCTTCATTTTCATC
modifications: amino-C6-dT in template
With B6, in series [4], the binding result was “binds”.
